Measurements: patent publication CN113564213A

Assays:
[1] = molecular target: 增强型荧光蛋白eGFP (eGFP的A206K突变体, mEGFP); assay: bead capture from 2 mL eGFP IVTT liquid, eGFP in excess, 1 h; fluorescence (RFU) of Total against Flow-through
[2] = molecular target: 增强型荧光蛋白eGFP (eGFP的A206K突变体, mEGFP); assay: bead capture from 1 mL eGFP IVTT liquid, beads in excess, 1 h; fluorescence (RFU) of IVTT supernatant against flow-through

B1: antiEGFP-mScarlet-Tamvavidin2融合蛋白 (VHH, part only; not given: mScarlet and Tamavidin2 parts, not shown: large carriers)
chain, part: MAQVQLVESGGALVQPGGSLRLSCAASGFPVNRYSMRWYRQAPGKEREWVAGMSSAGDRSSYEDSVKGRFTISRDDARNTVYLQMNSLKPEDTAVYYCNVNVGFEYWGQGTQVTVSS
With B1 the 载量 (每毫升antiEGFP磁珠结合的eGFP蛋白的质量) [1] was 17.7 mg/mL and the 结合效率 [2] was 98.2%.
